How the values were obtained:
Assay in all cases: cell-based or functional assay
Set-up in all cases: AUC (IL-2 ELISA): unit not given beside the values
[1] = target: chimeric receptor containing a rhesus macaque FcγRIIA ectodomain and the CD3ζ intracellular signaling domain (rhesus macaque)
[2] = target: chimeric receptor containing a rhesus macaque FcγRIIB ectodomain and the CD3ζ intracellular signaling domain (rhesus macaque)
[3] = target: chimeric receptor containing a rhesus macaque FcγRIII ectodomain and the CD3ζ intracellular signaling domain (rhesus macaque) (UniProt A3RFZ7)
[4] = target: chimeric receptor containing a rhesus macaque FcγRI ectodomain and the CD3ζ intracellular signaling domain (rhesus macaque)

chimeric receptor containing a rhesus macaque FcγRIII ectodomain and the CD3ζ intracellular signaling domain (rhesus macaque), sequence (A3RFZ7 whole entry, change not shown, the tested form may be a part): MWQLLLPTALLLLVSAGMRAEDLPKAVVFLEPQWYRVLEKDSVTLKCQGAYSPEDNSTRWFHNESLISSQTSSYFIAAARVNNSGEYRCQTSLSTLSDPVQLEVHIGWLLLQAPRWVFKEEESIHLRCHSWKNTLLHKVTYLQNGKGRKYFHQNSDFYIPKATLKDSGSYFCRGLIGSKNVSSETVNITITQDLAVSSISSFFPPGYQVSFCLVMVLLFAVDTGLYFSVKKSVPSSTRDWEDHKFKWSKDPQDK
PGT121 (Mammalian) (antibody), sequence (heavy): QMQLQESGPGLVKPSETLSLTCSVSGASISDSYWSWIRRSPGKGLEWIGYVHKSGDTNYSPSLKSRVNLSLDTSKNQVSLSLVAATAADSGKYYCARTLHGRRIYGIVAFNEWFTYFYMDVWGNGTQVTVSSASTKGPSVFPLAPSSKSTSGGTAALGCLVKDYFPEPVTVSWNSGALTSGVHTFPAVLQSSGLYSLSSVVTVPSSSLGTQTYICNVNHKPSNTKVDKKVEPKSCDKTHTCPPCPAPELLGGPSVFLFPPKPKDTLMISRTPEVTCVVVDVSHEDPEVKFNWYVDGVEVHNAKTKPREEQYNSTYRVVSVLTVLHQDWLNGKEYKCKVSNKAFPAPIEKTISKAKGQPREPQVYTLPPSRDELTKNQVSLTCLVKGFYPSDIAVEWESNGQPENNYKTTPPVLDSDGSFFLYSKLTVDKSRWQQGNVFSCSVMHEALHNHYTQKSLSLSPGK
PGT121 (Mammalian) (antibody), sequence (light): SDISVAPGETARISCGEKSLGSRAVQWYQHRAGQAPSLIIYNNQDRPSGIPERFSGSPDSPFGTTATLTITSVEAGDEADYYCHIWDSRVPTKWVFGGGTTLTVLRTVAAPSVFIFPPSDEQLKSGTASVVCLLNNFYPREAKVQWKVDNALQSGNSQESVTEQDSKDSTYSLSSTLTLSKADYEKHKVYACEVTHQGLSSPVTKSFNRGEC

AUC (IL-2 ELISA) [1] | EC50 (IL-2 ELISA) [1] | AUC (IL-2 ELISA) [2] | EC50 (IL-2 ELISA) [2] | AUC (IL-2 ELISA) [3] | EC50 (IL-2 ELISA) [3] | AUC (IL-2 ELISA) [4] | EC50 (IL-2 ELISA) [4] | Substance
0.334 | > 50 mg/L | 0.355 | > 50 mg/L | 0.37 | > 50 mg/L | 4.69 | 0.419 mg/L | Nb VRC01-KDEL (antibody)
3.74 | 1.72 mg/L | 0.636 | 3.58 mg/L | – | – | 3.55 | 0.619 mg/L | PGT121 (Mammalian) (antibody)
4.15 | 0.722 mg/L | 1.26 | 2.1 mg/L | 1.46 | 1.21 mg/L | 4.14 | 0.326 mg/L | VRC07-523 (Mammalian) (antibody)

More lines, now with the values behind:

Substance | AUC (IL-2 ELISA) [1] | EC50 (IL-2 ELISA) [1] | AUC (IL-2 ELISA) [2] | EC50 (IL-2 ELISA) [2] | AUC (IL-2 ELISA) [3] | EC50 (IL-2 ELISA) [3] | AUC (IL-2 ELISA) [4] | EC50 (IL-2 ELISA) [4]
Nb PGT121-KDEL (antibody) | 0.401 | > 50 mg/L | 0.4 | > 50 mg/L | 0.934 | 3.57 mg/L | 4.46 | 0.548 mg/L
VRC07-523-LS(Mammalian) (antibody) | 4.5 | 0.853 mg/L | 1.36 | 1.95 mg/L | 1.82 | 0.637 mg/L | 4.37 | 0.303 mg/L
Nb PGT121-YTE (antibody) | 0.246 | > 50 mg/L | 0.256 | > 50 mg/L | 0.226 | > 50 mg/L | 3.99 | 0.735 mg/L

Source: patent US20250333512A1
